Laboratory results as given in the DeepSol protein solubility set.

Assay: soluble on expression in E. coli; label from the status in PepcDB or PDB records

Row | Sequence | soluble on expression in E. coli
1 | SMGGRRAVRVWCDGCYDMVHYGHSNQLRQARAMGDYLIVGVHTDEEIAKHKGPPVFTQEERYKMVQAIKWVDEVVPAAPYVTTLETLDKYNCDFCVHGNDITLTVDGRDTYEEVKQAGRYRECKRTQGVSTTDLVGRMLLVTKAHHSSQEMSSEYREYADSFGKCPGGRNPWTGVSQFLQTSQKIIQFASGKEPQPGETVIYVAGAFDLFHIGHVDFLEKVHRLAERPYIIAGLHFDQEVNHYKGKNYPIMNLHERTLSVLACRYVSEVVIGAPYAVTAELLSHFKVDLVCHGKTEIIPDRDGSDPYQEPKRRGIFRQIDSGSNLTTDLIVQRIITNRLEY | soluble
2 | SMIPDFMSFTSHIDELYESAKKQSGGKVADYIPQLAKFSPDLWGVSVCTVDGQRHSTGDTKVPFCLQSCVKPLKYAIAVNDLGTEYVHRYVGKEPSGLRFNKLFLNEDDKPHNPMVNAGAIVVTSLIKQGVNNAEKFDYVMQFLNKMAGNEYVGFSNATFQSERESGDRNFAIGYYLKEKKCFPEGTDMVGILDFYFQLCSIEVTCESASVMAATLANGGFCPITGERVLSPEAVRNTLSLMHSCGMYDFSGQFAFHVGLPAKSGVAGGILLVVPNVMGMMCWSPPLDKMGNSVKGIHFCHDLVSLCNFHNYDNL | soluble
3 | SMLSRAKPAVGGESPHTDKRKKKGRKIPKLEDLLSQRDFTGAITLLEFKRHVGEQEDDTNLWIGYCAFHLGDYKRALEEYENATKEENCNPEVWVNLACTYFFLGMYKQAEAAGFKAPKSRLQNRLLFHLAHKFNDEKKLMNFHQNLQDIKEDQLSLASNSEIHLPLPPECWD | soluble
4 | SMPEQSNDYRVVVFGAGGVGKSSLVLRFVKGTFRDTYIPTIEDTYRQVISCDKSVCTLQITDTTGSHQFPAMQRLSISKGHAFILVFSVTSKQSLEELGPIYKLIVQIKGSVEDIPVMLVGNKCDETQREVDTREAQAVAQEWKCAFMETSAKMNYNVKELFQELLTLETRRNMSLNIDGKRSGKQKRTDRVKGKCTLM | soluble
5 | SMQELFNNLMELCKDSQRKFFYSDDVSASGRTYRIFSYNYASYSDWLLPDALECRGIMFEMDGEKPVRIASRPMEKFFNLNENPFTMNIDLNDVDYILTKEDGSLVSTYLDGDEILFKSKGSIKSEQALMANGILMNINHHRLRDRLKELAEDGFTANFEFVAPTNRIVLAYQEMKIILLNVRENETGEYISYDDIYKDATLRPYLVERYEIDSPKWIEEAKNAENIEGYVAVMKDGSHFKIKSDWYVSLHSTKSSLDNPEKLFKTIIDGASDDLKAMYADDEYSYRKIEAFETTYLKYLDRALFLVLDCHNKHCGKDRKTYAMEAQGVAKGAGMDHLFGIIMSLYQGYDSQEKVMCEIEQNFLKNYKKFIPEGY | soluble
6 | SMTLTLNRQLLTSRQILVAFSGGLDSTVLLHQLVQWRTENPGVALRAIHVHHGLSANADAWVTHCENVCQQWQVPLVVERVQLAQEGLGIEAQARQARYQAFARTLLPGEVLVTAQHLDDQCETFLLALKRGSGPAGLSAMAEVSEFAGTRLIRPLLARTRGELVQWARQYDLRWIEDESNQDDSYDRNFLRLRVVPLLQQRWPHFAEATARSAALCAEQESLLDELLADDLAHCQSPQGTLQIVPMLAMSDARRAAIIRRWLAGQNAPMPSRDALVRIWQEVALAREDASPCLRLGAFEIRRYQSQLWWIKSVTGQSENIVPWQTWLQPLELPAGLGSVQLNAGGDIRPPRADEAVSVRFKAPGLLHIVGRNGGRKLKKIWQELGVPPWLRDTTPLLFYGETLIAAAGVFVTQEGVAEGENGVSFVWQKTLS | soluble
7 | SNADRRYKWQTVVSEQLVGAGFNEILNNSLTAGSYYEGLKSHPREMAVELMNPLSQELNCMRQTLLFGGLETLSHNLRRKHLSLYLFEWGKCYRFHAAKRTDETPLAAYAEDDRLGIWICGQRVHNSWAHPEEPTSVFELKAVVEQVLCRVGIETGAYTLKTADNDLYASAMEVKTRSGKLLGTFGTVSTELIKRFEIEQPVYFAELLWDALM | soluble
8 | SNAMIYPDETMLYAPVEWHDCSEGYTDIRYEKSTDGIAKITINRPQVRNAFRPLTVKEMIQALADARYDDNVGVIILTGEGDKAFCAGGDQKVRGDYGGYQDDSGVHHLNVLDFQRQIRTCPKPVVAMVAGYSIGGGHVLHMMCDLTIAAENAIFGQTGPKVGSFDGGWGASYMARIVGQKKAREIWFLCRQYDAQQALDMGLVNTVVPLADLEKETVRWCREMLQNSPMALRCLKAALNADCDGQAGLQELAGNATMLFYMTEEGQEGRNAFNQKRQPDFSKFKRNP | soluble
9 | SNAMKVINVDVAIIGTGTAGMGAYRAAKKHTDKVVLIEGGAYGTTCARVGCMPSKLLIAAADASYHASQTDLFGIQVDRISVNGKAVMKRIQTERDRFVGFVVESVESFDEQDKIRGFAKFLDEHTLQVDDHSQVIAKRIVIATGSRPNYPEFLAAAGSRLLTNDNLFELNDLPKSVAVFGPGVIGLELGQALSRLGVIVKVFGRSGSVANLQDEEMKRYAEKTFNEEFYFDAKARVISTIEKEDAVEVIYFDKSGQKTTESFQYVLAATGRKANVDKLGLENTSIELDKKNSPLFDELTLQTSVDHIFVAGDANNTLTLLHEAADDGKVAGTNAGAYPVIAQGQRRAPLSVVFTEPQVASVGLSLRQIEDLYADQDAANYVVGQVSFEGQGRSRVMGKNKGLLNVYADRTSGEFLGAEMFGPAAEHIGHLLAWARQQQMTVQAMLTMPFYHPVIEEGLRTALRDAQQKLAIEKHDMNEFIMTHDNAMKLVI | soluble
10 | SNAMLRYGDTEICIDPSESVLHLLGKKYTMLIISVLGNGSTRQNFNDIRSSIPGISSTILSRRIKDLIDSGLVERRSGQITTYALTEKGMNVRNSLMPLLQYISVLDRNGD | soluble
11 | SNAMNIQALLSEKVSQALIAAGAPADCEPQVRQSAKVQFGDYQANGVMAVAKKLGMAPRQLAEQVLSHLDLNGIANKVEIAGPGFINIFLDPAFLADNVNRALQSERLG | soluble
12 | SNAMSFIAIIPARYASTRLPGKPLADIAGKPMVVHVMERALASGADRVIVATDHPDVVKAVEAAGGEVCLTRADHQSGTERLAEVIEHYGFADDDIIVNVQGDEPLVPPVIIRQVADNLAACSAGMATLAVPIASSEEAFNPNAVKVVMDAQGYALYFSRATIPWERERFAQSKETIGDCFLRHIGIYAYRAGFIRRYVNWAPSQLEQIELLEQLRVLWYGEKIHVAVAKAVPAVGVDTQSDLDRVRAIMLNQ | soluble
13 | SNAMSKKAELAELVKELAVVHGKVTLSSGKEADYYVDLRRATLHARASRLIGELLRELTADWDYVAVGGLTLGADPVATSVMHADGREIHAFVVRKEAKKHGMQRRIEGPDVVGKKVLVVEDTTTTGNSPLTAVKALREAGAEVVGVATVVDRATGAADVIAAEGLEYRYILGLEDLGLA | soluble
14 | SNAMWKRMTAKAEGLYIADTKSFVTKQMDKLDFDYGGIPGDLHFGLTKKAGAREPMFSRGTEIFNRRQISIVSIEECNEIALKMGVPRILPEWLGANVAVSGMPDLTSLKEGSRIIFPSGAALLCEGENDPCIQPGEVIQSYYPDQPKLASAFVRHALGIRGIVCIVERPGAVYTGDEIEVHSYQRKVKRKAERV | soluble
15 | SNAQESRLDRILESGVLRVATTGDYKPFSYRTEEGGYAGFDVDMAQRLAESLGAKLVVVPTSWPNLMRDFADDRFDIAMSGISINLERQRQAYFSIPYLRDGKTPITLCSEEARFQTLEQIDQPGVTAIVNPGGTNEKFARANLKKARILVHPDNVTIFQQIVDGKADLMMTDAIEARLQSRLHPELCAVHPQQPFDFAEKAYLLPRDEAFKRYVDQWLHIAEQSGLLRQRMEHWLEYR | soluble
16 | SNASYETSQHNLDAVEAVLSRLQKQTGEMAAYMVPVGYRALCVSQRESMQALRCSFVQGQSQPLLRGASSKVMLAYMPAARCEKILRYFGEDPTLDKWQSEFEKIRRHGYAVSTSEIDPGVSGISAPVMKGSKLIGAISVMAPAHRVESNKQRIILHVLQAARAL | soluble
17 | SNEVKESLRSIEQKYKLFQQQQFTFIAALEHCRENAHDKIRPISSIEQVQSYMEHYCNNSTHRRILIMFMDICSELSKLCQHFEALHSGTPVTNSLLEKCKTLVSQSNDLSSLRAKYPHEVVNHLSCDEARNHYGGVVSLIPIVLDFMKEWIAHSEKLPRKVLQHGTT | soluble
18 | SNKLMELANLQPKRPKTIKQRHVRKKRKIKDMLNTPLCPSHSSLHPVLLPSDVFDQPQPVGNKRIEFHISTDMPAAFKKDLEKEQNCEEKNHDLPATEVDASNIGFGKIFPKPNLDITEEIKEDSDEMPSECISRRELEKGRISREEMETLSVFRSYEPGEPNCRIYVKNLAKHVQEKDLKYIFGRYVDFSSETQRIMFDIRLMKEGRMKGQAFIGLPNEKAAAKALKEANGYVLFGKPMVVQFARSARPKQDPKEGKRKC | soluble
19 | SNQECPDYLRELIRKTKTLTEKPFGIGVVLAFPHDLNIKTILEEKVAVLQLYWGDCSQELVDDAHFAGVKVIPQVGNVEEARKAVAVGVDAIIVQGREAGGHVIGKDGLFSLLPRVVDLVGERDIPVIAAGGIVDGRGYVAALSLGAQGVCLGTRFVATHESYAHPIYKRKLIEYEKTEYTDVFGRARWPGAPQRVLETPFFDDWRSLPAHENEVNQPIIGRSTIHGVEKEIRRFSGTVPNMTTTGDLESMAMYAGQSVGLIKEILPAGEVVKSLVEEAQALILQKFNNATTT | soluble
20 | SNTQAERSIIGMIDMFHKYTRRDDKIDKPSLLTMMKENFPNFLSACDKKGTNYLADVFEKKDKNEDKKIDFSEFLSLLGDIATDYHKQSHGAAPCSGGSQ | soluble
21 | SPGQGTQSENSCTHFPGNLPNMLRDLRDAFSRVKTFFQMKDQLDNLLLKESLLEDFKGYLGCQALSEMIQFYLEEVMPQAENQDPDIKAHVNSLGENLKTLRLRLRRCHRFLPCENKSKAVEQVKNAFNKLQEKGIYKAMSEFDIFINYIEAYMTMKIRN | soluble
22 | SPTVEELYRNYGILADATEQVGQHKDAYQVILDGVKGGTKEKRLAAQFIPKFFKHFPELADSAINAQLDLCEDEDVSIRRQAIKELPQFATGENLPRVADILTQLLQTDDSAEFNLVNNALLSIFKMDAKGTLGGLFSQILQGEDIVRERAIKFLSTKLKTLPDEVLTKEVEELILTESKKVLEDVTGEEFVLFMKILSGLKSLQTVSGRQQLVELVAEQADLEQTFNPSDPDCVDRLLQCTRQAVPLFSKNVHSTRFVTYFCEQVLPNLGTLTTPVEGLDIQLEVLKLLAEMSSFCGDMEKLETNLRKLFDKLLEYMPLPPEEAENGENAGNEEPKLQFSYVECLLYSFHQLGRKLPDFLTAKLNAEKLKDFKIRLQYFARGLQVYIRQLRLALQGKTGEALKTEENKIKVVALKITNNINVLIKDLFHIPPSYKSTVTLSWKPVQKVEIGQKRASEDTTSGSPPKKSSAGPKRDARQIYNPPSGKYSSNLGNFNYERSLQGK | soluble
23 | SQELRGEIKLFCSVTASYSHLPELLSSFRLKHPYIEFKLLTGDPAQAIDKILHDEADIAISAMPEQLPSRIEFATISEIPLSVIAPLGISSFMDELQKEQPDWNEIPFIVPESGTARDRANTWFKQMKIKPNIYAQIAGHEAIV | not soluble
24 | SQILDRKGRLIANIYDKEFRFYARFEEIPPRFIESLLAVEDTLFFEHGGINLDAIMRAMIKNAKSGRYTEGGSTLTQQFVKNMVLTREKTLTRKLKEAIISIRIEKVLSKEEILERYLNQTFFGHGYYGVKTASLGYFKKPLDKLTLKEITMLVALPRAPSFYDPTKNL | not soluble
25 | SQKQKALLQRVETDITSVVDNFTQIVNVSRVSDPPVKNSQETYMMEMRASRMATQVLLKDFLMSLWSVVNLLPHQWWQVQAADSLLKLVSELKQTAIFSGFASLNDHVEQRIEEFDQEAEKTNRLLARIADDASANLKELESHYYSSAQRLTLDI | not soluble
